Results published in the DeepSol protein solubility set.

Experiment: soluble on expression in E. coli; label from the status in PepcDB or PDB records

| Sequence | soluble on expression in E. coli |
| --- | --- |
| MGSDKIHHHHHHMRRGGTAFSSKCKICGKAAPFSLPVCPECSKKDAALEIATSLHPPLYEKRVEGCNLCSNKCSGIALCGKPEYGKLTYYEDPLPTNCCNAWFCNGSKLTGTNLAVFYYGCNFDCLYCQNWTHKYFEDVRTVSVDELLRAAKNFRVRCVCHFGGSPEPQLPFALKFSRKALEFKEDLMICWEWNGAGNTSLALKAAELSSRSGGTVKFDLKAWNPNLHVLLTGRDNERVKDNFERIYDKHGEVLSATTLLVPYYVDEEEVEGIARFISSFSTEIPYSLLVFHPDYRMSDFPVTPVQQVKRCYKAAKKHLKNVNIGNLHLLGL | not soluble |
| MGSDKIHHHHHHMRRKIPSSTTLMAFEVAARHGSFARAAEELSLTEGAISRQIGRLEAFLGVTLFERVGNRVRLLPNGERYAAQVRESLDRLDRDSQYLMGQPSDGASLDIATIPTFAMRWLIPRLSRFQQKHPNITVHLAERMDPFVLAGSGFDAAIHFEHPAWTGMRTHQLLHEVLVPVCHPELLTGRKRKTALDELPRLHRRQNPEAWLQYSQETGTPLTNPAIGARYDLHGMLIEAALAGLGVALVPRLYVETELALGNLVAPWPEGKTISKTFCLILPEPIGLSREPIQAFAQWLLDEAKKGNSG | not soluble |
| MGSDKIHHHHHHMRRLNRKNNEALKKLNDRQRKVLYCIVREYIENKKPVSSQRVLEVSNIEFSSATIRNDMKKLEYLGYIYQPHTSAGRIPTDKGLRFYYEEMLKISKETSEADLAVETFKSMPLADPEKVLFLAGNLLARLTEGYVLIERPNTRDLKILRVMLIPVSEDYLIFSILTEFGVSKVTPIKTQERLNWEEIERQLNFLLRGRTVGEVLMGKIESLKGSGFLRLIESLIGETVERYLDAGLENLLKDETLTLEDIRNLLEEVKDQKFLESLVGEGITVRIGREIGRKKLEKFAVFSGKYFKGESPIGSVYLFTSKVTKYDRNHRVFEYILNRLSEYFTSTSRR | not soluble |
| MGSDKIHHHHHHMRRLPHVTWLRSFEAAARHSSFSAAAEELHLTPAAVSQQIRQLEHHLGFQLFKRLPKGVELTDIGQAYAIPVRKSFVQMQEATDGLFRVQSKSVLRVRCSISFAALILAPLLRDFAEIHPDIDVELSTAVWSDRMEGAGVDLDIRYGAACWPEQNVHPLPVEEATLVCHPDYAAQLGSALDPAWLGAADIVQIVGSETDWDRYLRLCGIDTPRPRHWMKADSSLIALQILSAGRGCALISRSFARQALSEGRLVAPFDLSLPMQESFVLVERDDLRENPGLRKLVDWLLTQRL | not soluble |
| MGSDKIHHHHHHMRRVNRPAPLSERQYEYMQRCINSWFNVAEGGKRGGKNVLQTLIFCSLLETHKNKIHLVAGVSSATAKLNILDCDGYGLLNYFEGRCREGKYKDRDCVYVQTKTGEKIVLVSGGGKDGDEKLIKGNTYGMAYVTEANECHQKFLKEVFDRTLSSTDRKIFHDLNPKEEEHWYYTEILKFHEEQQANDENYGYNYGHFTLVDNMSMSDEKIRTVLKTYQKGTVWYKRDIKGERAVAEGIIFRKFKENNIPYLCDDSILKYNKDGELFPRPSKVIIGMDFGGNGSMTTMVCSLYFRGYHFIYPVEEDYLELSPDIDANNICDKYIEFYRRCAAKYERIDWTFPDSASTTMINSLRSAAKKDGLRYDHIAGCRKNEISERPRTVDLLLNTGRMKVHKRCVNLRKAIGTLKWDEKHPNIPEDKNIGNCNDWWDALCYTMLDFIEYIDLDR | not soluble |
| MGSDKIHHHHHHMRSLTNAEIAHNRLLNSGLLQSKFSSAEDATRALFGIQSQYQQFGEISLFNRVPNLTKENLQMAYDDKGIIKIWGQRMTIHMYTPDDWFYVHDVYANKNNWLRKHADSLGRDLDEILVQMEELLLREDKVSKESFAALLGNEAKELMTWGGVFIQGSLDGKLFCVPESPKTKFYSHRNQIDSEREDAWITNKRSKTGLETMIDRYFSAFGPATIQDFKHWSGLRNSDYIETLEKLLENYICYIGEDGKNYYSKAKTQENVEMGSPLLLGKFDPLFVSYAKKNWLASEKETSLIWRTAGQIEAVLIINAQFFGTWRYKISGDKIVFQFYLSKKLTKKGQKLVEKEAIKLAEFLLKNYQGSIFEQI | not soluble |
| MGSDKIHHHHHHMRTKIGIYLSSEPESGGMFQYGLSILDAAASLPRDRYQTTVAFISERWNEHLKFRNLEHFQISPNFLWRIFKGKGWLLLNLPISFWRWILINLNPFFYKRLIQEGCDLWLFPSQDTWTYLLRLNSLGVVHDLMHRYEKKFSEVAAPFEYRRRERHYRAMCEYSKGILVDSNYGKRQVLESYDAKPDFIHVLPYVPPEYINIKNAPIDFDSRYNLPRKFLFYPAQFWEHKNHHNLLAALAHLKRELRDIHVVLVGSKKNAYKKTLGYINSMNLSDHVIILGYVPNEDMAEFYRRARALVFPSFFGPTNIPPLEACAAGCPLAVSNIYGMPEQLGDAALFFNPHSVEEIHLAMKRLWIDDALCRQLSMNGKKWAKAWNQNSFNRQFQVIIEEVLKNPNT | not soluble |
| MGSDKIHHHHHHMRVTADEGLYGEEATQGTEFRFHCETLFSRSSLHRFEIGLHRHSAFLQILYIFGGEGDALLEGRIEPIRPPVAIIVPPGFEHGFRFSRDIGGVIVTMLPGALPASVQALLLRNFQQPVLLRLRDFAEKDGLRSGFERISAEYEAREIGRDAMIEGQLATVVTLLSRAARPLLETSGEGLAEQRFERLLSLIARHIREPQKAGFYAGKLGLSETHLNRLVRSVSGLSLQRLIAKRQIEIAQQELIFTVSSVQMIAEGLGFADPAYFNRFFKRETGMTPRAWRLAEQRKMGDTGARLTPPQTSILASSR | not soluble |
| MGSDKIHHHHHHMRVYIGCGGYTDEDWTAPGLIYEGVKKDAFLETYAHHFDAVELNSSFYAIPGLKAFEGMVRKSGGWVRFAVKLNKVFTHVRAPTDTDFDRMLQSPEPLREAGMMGPYLAQFPYSFHRTAANRKYLALLTERFAGHELAVELRHASWDKPEVREGMGEFGIIWVSPDYPPVGGMPEPQVHVTGDVGYLRLHGRNRETWWEGQSAGERHDYLYNRAEMDEWAEKIAAVAGDLSELYVFFQNTTGGHALKNIPMLREALNARGVPVQTPEAHDGGRLL | not soluble |
| MGSDKIHHHHHHMSAHEMNHATPRLPAPLFVTGTDTGVGKTVVSLLLMRALFRRGMVPFYAKPMQTGCRDPYDTDSDAAFVYRHVPELAERDPAEAVGWCFRAPKAPLHAARDERNGVETEDLMRRLAILRATHACLVLEGAGGLMVPFTADALCVDCIRAADARPVLVARDGLGTVNHTLLSVEAMTRRGVTPAGIVFVASGKRPTPSDLVHDNMEAVAMLSGISVSGIVPPILDFHAPPEAALTVADAVIDAALGL | not soluble |
| MGSDKIHHHHHHMSAIERITKAAHLIDMNDIIREGNPTLRTVAEEVTFPLSDQEIILGEKMMQFLKHSQDPVMAEKMGLRGGVGLAAPQLDISKRIIAVLVPNIVEEGETPQEAYDLEAIMYNPKIVSHSVQDAALGEGEGCLSVDRNVPGYVVRHARVTVDYFDKDGEKHRIKLKGYNSIVVQHEIDHINGIMFYDRINEKDPFAVKDGLLILE | soluble |
| MGSDKIHHHHHHMSCSTAVKENTTQPDIMETNKKNLGNLLALYPKPMTVVGAEVEGKVNWLVVGHTGVIGHDRILVSMSKSHYTNQGIKKSKRLSVNLVSREMLPKADYVGSVSGATVDKSEVFAYHIGENDTPVIDASPLTMECEVVDIYETDGFDNFICAIVNTYAASDVLDSDGKLDYTKLKPVLFEFPTYSYLATGEIIGKCLNPDKPGMCVKEPMTTDGIVRLSKIEVYPQYLDEYMNYATEVGEISLRTEPGVLTMYAVGEKENPCKVTILETYASREAYEQHIASEHFQKYKQGTLHMVKSLVLSDQTPLNPANKLNNFMQ | not soluble |
| MGSDKIHHHHHHMSDKKYNVDEGEIAKFSRIADKWWDKSGEFKTLHDINPLRLDYIDGHADLCGKRVLDVGCGGGILAESMARRGAAFVKGIDMAEQSLETARLHAALNNVADIEYECIRVEDLAEAEPHSFDVVTCMEMMEHVPDPAAIVRACAKLVKPDGMVFFSTINKNPKSYLHLIVAAEYLLKFVPKGTHDWKKFIVPAELARMCRQAGLDVADTKGMTYHVLSQTYALCDSTDVNYMFACRPAF | not soluble |
| MGSDKIHHHHHHMSDPTWDGSPQYRNELLRFMPADDLALLAPHMQRCALPVRMMLVTPNIPIEAVYFIEQGIGSVVASTASGHDAEIGFIGFEGMTGSALVMGDDRAAHACFVQLEGEAIRIDAAPFNAALAASPTLRLFLLHFVNTLHTQTGCTALVNARLKLEERLARWLLMCDDRVPGESLAMTHEFLSIMLGVRRPGVTVALQLLEGRALIRSRRGEIVIRDRAGLLELANGGYGQAEAEYARLIGEIMPG | not soluble |
| MGSDKIHHHHHHMSDSEKSNSRLFDLDLLRAIVTVADCGSFTTAAARLHSTQSTVSQKVRRLEEMAGHRLLERGNRDVLPTDAGDTLLGYARRLLALNDELAEALSGATVALTVRIGVPDDFAAGRTTERLAAFNRRYPQVKLEVTSGMSRDLSASYDRGELDLVLLKQRRASREALACWPEKTCWVDSARNPCIDLDPLPIVTFPPRGVYRDEMIAALEAVGRRWHISFTSSSLSGLQSAIADGMGIGLLPLRAVSAGHAVLPKNVGLPAVDVFEVALLHRPAADPMVKALARVLSRVLAEDTRSRPAFEK | not soluble |
| MGSDKIHHHHHHMSEAKMAESDGLRVLIDEPFYQPVANEVRVFLAAWDRRLPVMLKGPTGCGKTRFLEHMAWRLKRPLVTVACHEDLTSSDLIGRFLIEGNETVWQDGPLTRAVREGAICYLDEIVEARTDTTVVIHPLTDHRRHLPIEKLGIEITAHRDFMLVISYNPGYQTVLKDLKPSTKQRFVGMNFNYPPADVETCIVMKEAGVDEGRAKALVAAAGKARNLKEQGLQEVTSTRALIYAGALMVAGLDALEACVVAIIHPQTDDPELAEALLEIFRTFFPEQG | not soluble |
| MGSDKIHHHHHHMSEEIELKFIVHPDSVESLLTQLAEWESDYSQYEHMRAQRLSNIYYETADNYLRRNGIGLRIRGENERYEMTAKTAGKVIGGLHQHPEYNVALETAELDLSLFPAEIWPEDCDVKTLQPSLNPLFSTDFTREKWVFTYYQSVIEVALDRGEIRAGDLSEPLCELEMELKVGQTTHLLALAKEIAEFGGMRQGSLSKAARGYHLAKGNPVRECLPLNRLVVDSKTNIDQAIRAALELALSHWQYHEELWVRGDSSAREALPQASALMREMLVLVGGVVLRRVTTLFRSALSTLENRLQGSGGSEICYSTDYLQSKLVLTSWLVESGWRDYMDNKDRIKLQGSFKRFADIMLSRSTAELKSAFSSKLTAEQYEQQIPRLQRNLYAFLLLSGAYPADQVEAYVEHWQTLLQEIEHLAVDQAPSVYLEAYRKEVLTLPPFWLHSGGPSQ | not soluble |
| MGSDKIHHHHHHMSEILVLGGGMVGISTALELQARGHAVTVVDRKAPGQETSYGNAGLIQAEAAEPYAMPRALPEILGILSGRSNDVIWSLRGVLSQLPALWQYYRYSHPHRHLALSQPNAHLIRTACADHDRWITAAAAQDLIAQDGYLSVFQDAAMFDSLASDLERLRQSYGVEATAMSGPQLCKMEPLYQRPPVGGIHWRDVWSCAAPGELVARYAALFQSRGGEICTGDASTLRPEGSAWALMSEAGRLHGEHAVIALGPWTPPILAQLGYRVRMIMKHGAHRMYPTGPKLRRPVHDAQHGIVLSSMKGGLRMTCGVALEASGRVPDARQLDRGAKGLAAYMDLGTAEGGPIWHGTRPFLPDMLPMVGAAPRHDRLWFHFGHGHQGFTLGPTTARHLGALIDGGDSAGIAALLPQNRPAVLS | not soluble |
| MGSDKIHHHHHHMSEKNQQSADLMARQYFLHLGAHRTGSSSFQLCLHENRAALANAGYGVAFPARDGIRAGQLALRLPQPRHDAEAETRMAETARQHLTQDIAPAPDQKVLLSEENILGSMSHFQQALFYPASAKRLRALRQAMEGPAAAVLLVVRDYGPFFRSCIRKRMEETIVTDFEGAVSAYLAMDRGWLEVLREVRDILEPAKLIVARHEDRPKRVDLLRELAPDLAQVALMQPSTSLNISATDRALSALQARYATGEKLSRKAWRATLAEWRDDATPMGLTEFTPRELRAFSMRYERDLSDIAKEPGLTLI | not soluble |
